{"source": "paper PMC3790964", "about": "(Biochimica et Biophysica Acta, 2013)", "proteins": {"B1": {"name": "stomatin (natural protein, human (endogenous in erythrocytes), UniProt P27105 1-288, looked up)", "chain": "MAEKRHTRDSEAQRLPDSFKDSPSKGLGPCGWILVAFSFLFTVITFPISIWMCIKIIKEYERAIIFRLGRILQGGAKGPGLFFILPCTDSFIKVDMRTISFDIPPQEILTKDSVTISVDGVVYYRVQNATLAVANITNADSATRLLAQTTLRNVLGTKNLSQILSDREEIAHNMQSTLDDATDAWGIKVERVEIKDVKLPVQLQRAMAAEAEASREARAKVIAAEGEMNASRALKEASMVITESPAALQLRYLQTLTTIAAEKNSTIVFPLPIDMLQGIIGAKHSHLG"}}, "target": "the molecule itself", "assay": "cross-linking + affinity purification with mass spectrometry", "data": [{"protein": "B1", "values": [{"measurement": "stoichiometry N", "result": 2}]}]}
